This note sets out measurements from article PMC4658667.

Experiment [1] has as its target CdiI^Nlact immunity protein from Neisseria lactamica ATCC 23970, His6-tagged (Neisseria lactamica ATCC 23970). As to the kind of experiment: BLI.
The target in experiment [2] is CdiIo11^EC869 immunity protein from Escherichia coli EC869, His6-tagged (Escherichia coli EC869). Kind of experiment: BLI.

Where only a bound is given, the exact number is not on record here.

In the case of “CdiA-CTo11^EC869, orphan-11 CdiA-CT toxin from Escherichia coli EC869 (domain or fragment)”, the Kd (in general, the constant that tells how readily two partners part at equilibrium) in experiment [1] worked out at 82 µM. “CdiA-CTo11^EC869/Δβ4β5, CdiA-CTo11^EC869 with the β-hairpin (Lys242–Thr252) replaced by a Gly-Ser-Gly linker (domain or fragment)” gave a dissociation constant Kd in experiment [2] above 300 µM.
